{"source": "patent US20140107188", "about": "“USE OF HGMA-TARGETED PHOSPHOROTHIOATE DNA APTAMERS TO SUPPRESS CARCINOGENIC ACTIVITY AND INCREASE SENSITIVITY TO CHEMOTHERAPY AGENTS IN HUMAN CANCER CELLS” (Miami University, published 2014)", "binders": {"B1": {"name": "ATs10 (dsDNA)", "DNA 1": "GGGTTTTTTTTTTCGCGGCGGCCCCGCG", "DNA 2": "CGCGGGGCCGCCGCGAAAAAAAAAACCC", "modifications": "PS at the T10 tract linkages of the printed strand (GGGT*T*T*T*T*T*T*T*T*T*CGCG..); complementary strand unmodified"}, "B2": {"name": "ATf10 (dsDNA)", "DNA 1": "CGCGGGGCCGCCGCGAAAAAAAAAAACCC", "DNA 2": "GGGTTTTTTTTTTTCGCGGCGGCCCCGCG"}, "B3": {"name": "CG10 (dsDNA)", "DNA 1": "GGGCCCCCCCCCCCGCGGCGGCCCCGCG", "DNA 2": "CGCGGGGCCGCCGCGGGGGGGGGGGCCC"}, "B4": {"name": "Mix10 (dsDNA)", "DNA 1": "GGGCGTGACTGAGCGCGGCGGCCCCGCG", "DNA 2": "CGCGGGGCCGCCGCGCTCAGTCACGCCC"}}, "key": {"HMGA1b (full length) [1]": {"molecular_target": "T1, HMGA1b (full length) (UniProt P17096-2 P17096-2:1-96)", "T1 sequence (P17096 other isoform, or with tags, fused parts or gaps)": "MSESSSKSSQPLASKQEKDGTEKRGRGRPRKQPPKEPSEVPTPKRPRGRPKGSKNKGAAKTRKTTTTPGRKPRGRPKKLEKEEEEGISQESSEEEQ", "assay": "competition; about half of ATf10 displaced at 1:1 ATf10:ATs10; similar affinity to unmodified DNA", "details": "tags: expressed from pET-30b in E. coli BL21(DE3); TCA precipitation and Sephadex G-25", "method": "(§1) The HMGA protein samples were prepared in 25 mM Tris-HCl (pH 6.5), 50 mM NaCl, and the concentrations determined based on UV […] absorbance (ε=38,200 mol-1 cm-1). […] Nature structural biology 4 (1997) 657-665, the disclosure of which is incorporated herein by reference in its entirety and incubated at 4° C. for 15 minutes prior to gel analysis. The protein-DNA complexes were resolved on a 7.5% polyacrylmide gel and run with TAE buffer at 20 mA for 2-3 hours at 4° C. The DNA was detected at 495 nm using the VersaDoc™ Imaging System Model 3000 from BIO-RAD Laboratories, Inc. of Hercules, Calif. (USA). The gels were further stained with coomassie blue and visualized by an AlphaImager (Alpha Innotech, San Leandro, Calif.)."}, "HMGA1b (full length) [2]": {"molecular_target": "T1, HMGA1b (full length)", "assay": "EMSA; nearly completely shifted at DNA:HMGA1 1:1.5; 25 mM Tris-HCl pH 6.5, 50 mM NaCl, 4 C", "details": "tags: expressed from pET-30b in E. coli BL21(DE3); TCA precipitation and Sephadex G-25; label: 5'-6-FAM", "method": "as §1"}, "HMGA1b (full length) [3]": {"molecular_target": "T1, HMGA1b (full length)", "assay": "competition; equal amount did not interfere with HMGA1-ATf10 complex; 1:1 ATf10:HMGA1", "details": "tags: expressed from pET-30b in E. coli BL21(DE3); TCA precipitation and Sephadex G-25", "method": "as §1"}}, "data": [{"binder": "B1", "values": [{"measurement": "binding signal", "setting": "HMGA1b (full length) [1]", "value": "~1", "unit": "fold affinity vs ATf10"}]}, {"binder": "B2", "values": [{"measurement": "binding result", "setting": "HMGA1b (full length) [2]", "value": "binds"}]}, {"binder": "B3", "values": [{"measurement": "binding result", "setting": "HMGA1b (full length) [3]", "value": "no binding"}]}, {"binder": "B4", "values": [{"measurement": "binding result", "setting": "HMGA1b (full length) [3]", "value": "no binding"}]}]}
